Three molecules from patent US20260109758A1 (BIOSION, published 2026) can be followed below.

Assay [1] addresses T1, recombinant human IL4Rα-his (human, UniProt P24394 26-231, limits assumed, biotin-labeled in the capture ELISA).
T1 construct: In-house made; not shown: His tag at the C-terminus
In words: dual-binding ELISA: coated human IL4Rα-his, antibody titrated, detection with biotin human TSLP-his and SA-HRP; signal needs both antigens bound. How it is done: For the dual-binding ELISA, 96-well ELISA plates were firstly coated with 100 μL 1 μg/mL human IL4Rα-his protein (IL4Rα of SEQ ID NO: 33 with His tag at C terminus, prepared in-house) in PBS overnight at 4° C. ELISA plates were washed 4 times with wash buffer (PBS+0.05% Tween-20, PBST) and then blocked with 200 μL/well blocking buffer (5% w/v non-fatty milk in PBST) for 2 hours at 37° C. […] ELISA plates were washed again and incubated with SA-HRP (100 μl/well) for 40 minutes at 37° C. After the final wash, 100 μL/well TMB (Innoreagents) was added. The reaction was stopped 15 minutes later at room temperature with 50 μL/well 1M H₂SO₄, and the absorbance was read on a microplate reader using dual wavelength mode with 450 nm for TMB and 630 nm as the reference wavelength. The OD (450-630) values were plotted against antibody concentration. Data was analyzed using Graphpad Prism and EC₅₀ values were reported.

In assay [2] the target is T2, recombinant human TSLP-his (human, UniProt Q969D9 29-159, biotin-labeled in the ELISAs).
T2 construct: In-house made; not shown: His tag at the C-terminus
Nature of the assay: SPR Biacore; TSLP-his amine-coupled to CM5 chip, antibody as analyte; 1:1 Langmuir fit. On the procedure:
Un-reacted moieties on the biosensor surface were blocked with ethanolamine. Then, serially diluted purified bispecific antibodies and the controls (2-fold serial dilution in HBS-EP⁺ buffer starting at 100 nM) were respectively flowed onto the chip at a flow rate of 30 μL/min. The antigen-antibody association kinetics was followed for 4 minutes and the dissociation kinetics was followed for 13 minutes.

For assay [3], the target named is T1, recombinant human IL4Rα-his. In words: SPR Biacore T200; antibody captured on anti-human IgG CM5 chip, IL4Rα-his as analyte; 1:1 Langmuir fit. The essentials: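 Antibodies captured on anti-human IgG CM5 chip (bispecifics at 66.67 nM, controls 10 μg/mL), then serially diluted recombinant human IL4Rα-his (C-terminal His tag) in HBS EP flowed at 30 μL/min. Association and dissociation curves fit to 1:1 Langmuir model.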

For assay [4] the target is unchanged. Nature of the assay: capture ELISA: antibody captured on anti-human IgG Fc F(ab')2, biotin human IL4Rα-his, SA-HRP.

B1: BSI-502-005 (bispecific antibody, human IgG1, kappa)
heavy: QVQLVQSGAEVKKPGASVKVSCKASGYTFTTYWMHWVRQAPGQGLEWMGVIDPSDSDTTYNQKFKGRVTMTRDTSTSTVYMELSSLRSEDTAVYYCTRSLDGYYDYWGQGTLVTVSSASTKGPSVFPLAPSSKSTSGGTAALGCLVKDYFPEPVTVSWNSGALTSGVHTFPAVLQSSGLYSLSSVVTVPSSSLGTQTYICNVNHKPSNTKVDKKVEPKSCDKTHTCPPCPAPEAQGGPSVFLFPPKPKDTLYITREPEVTCVVVDVSHEDPEVKFNWYVDGVEVHNAKTKPREEQYNSTYRVVSVLTVLHQDWLNGKEYKCQVSNKALPAPIEKTISKAKGQPREPQVYTLPPSRDELTKNQVSLTCLVKGFYPSDIAVEWESNGQPENNYKTTPPVLDSDGSFFLYSKLTVDKSRWQQGNVFSCSVMHEALHNHYTQKSLSLSPGKGGGGSGGGGSEVQLVESGGGLVQPGGSLRLSCAASGFTFSTYGMSWVRQAPGKGLVWVATINSNGGSTSYPDSVKGRFTISRDNAKNTLYLQMNSLRAEDTAVYYCARFFRFRNAMDYWGQGTLVTVSSGGGGSGGGGSGGGGSGGGGSDIQMTQSPSSLSASVGDRVTITCRTSENIYSYLAWYQQKPGKAPKFLVYNAKTLAEGVPSRFSGSGSGTDFTLTISSLQPEDFATYYCQHYYGPPTWTFGQGTKVEIK
light: DIQMTQSPSSLSASVGDRVTITCRPTENIYSYLAWYQQKPGKAPKLLIYFARTLAEGVPSRFSGSGSGTDFTLTISSLQPEDFATYYCQHHYGTPWTFGGGTKVEIKRTVAAPSVFIFPPSDEQLKSGTASVVCLLNNFYPREAKVQWKVDNALQSGNSQESVTEQDSKDSTYSLSSTLTLSKADYEKHKVYACEVTHQGLSSPVTKSFNRGEC
notes: hu1C5F12E9-V8 IgG with an anti-IL4R scFv (VH-VL) at the C-terminus of the heavy chain; AQQ and YTE already stand in the entry
With B1, the concentration giving a half-maximal response (EC50) in assay [1] was found to be 0.0779 nM. Also, in assay [2], the dissociation constant Kd was less than 0.0145 nM, the koff was less than 1e-05 s⁻¹ and the kon was 692000 M⁻¹ s⁻¹. In assay [3], the dissociation constant Kd turned out to be 2.93 nM, the koff was found to be 0.000161 s⁻¹ and the kon came to 54900 M⁻¹ s⁻¹. Further, in assay [4], the EC50 amounted to 0.119 nM.

B2: BSI-502-007 (bispecific antibody, human IgG1, kappa)
heavy: QVQLVQSGAEVKKPGASVKVSCKASGYTFTTYWMHWVRQAPGQGLEWMGVIDPSDSDTTYNQKFKGRVTMTRDTSTSTVYMELSSLRSEDTAVYYCTRSLDGYYDYWGQGTLVTVSSGGGGSGGGGSGGGGSGGGGSDIQMTQSPSSLSASVGDRVTITCRPTENIYSYLAWYQQKPGKAPKLLIYFARTLAEGVPSRFSGSGSGTDFTLTISSLQPEDFATYYCQHHYGTPWTFGGGTKVEIKGGGGSGGGGSEVQLVESGGGLVQPGGSLRLSCAASGFTFSTYGMSWVRQAPGKGLVWVATINSNGGSTSYPDSVKGRFTISRDNAKNTLYLQMNSLRAEDTAVYYCARFFRFRNAMDYWGQGTLVTVSSASTKGPSVFPLAPSSKSTSGGTAALGCLVKDYFPEPVTVSWNSGALTSGVHTFPAVLQSSGLYSLSSVVTVPSSSLGTQTYICNVNHKPSNTKVDKKVEPKSCDKTHTCPPCPAPEAQGGPSVFLFPPKPKDTLYITREPEVTCVVVDVSHEDPEVKFNWYVDGVEVHNAKTKPREEQYNSTYRVVSVLTVLHQDWLNGKEYKCQVSNKALPAPIEKTISKAKGQPREPQVYTLPPSRDELTKNQVSLTCLVKGFYPSDIAVEWESNGQPENNYKTTPPVLDSDGSFFLYSKLTVDKSRWQQGNVFSCSVMHEALHNHYTQKSLSLSPG
light: DIQMTQSPSSLSASVGDRVTITCRTSENIYSYLAWYQQKPGKAPKFLVYNAKTLAEGVPSRFSGSGSGTDFTLTISSLQPEDFATYYCQHYYGPPTWTFGQGTKVEIKRTVAAPSVFIFPPSDEQLKSGTASVVCLLNNFYPREAKVQWKVDNALQSGNSQESVTEQDSKDSTYSLSSTLTLSKADYEKHKVYACEVTHQGLSSPVTKSFNRGEC
notes: huC2C1A1A1-V15 IgG with an anti-TSLP scFv (VH-VL) at the N-terminus of the heavy chain; AQQ and YTE already stand in the entry
B2: the EC50 in assay [1] came out at 0.0944 nM. In addition, in assay [2], the Kd amounted to 0.0084 nM, the koff was determined as 3.87e-06 s⁻¹ and the kon came out at 460000 M⁻¹ s⁻¹. For the same molecule, in assay [3], the Kd came to 2.22 nM, the koff was 0.000399 s⁻¹ and the kon turned out to be 180000 M⁻¹ s⁻¹. The EC50 in assay [4] came out at 0.0272 nM.

B3: BSI-502-008 (bispecific antibody, human IgG1, kappa)
heavy: DIQMTQSPSSLSASVGDRVTITCRPTENIYSYLAWYQQKPGKAPKLLIYFARTLAEGVPSRFSGSGSGTDFTLTISSLQPEDFATYYCQHHYGTPWTFGGGTKVEIKGGGGSGGGGSGGGGSGGGGSQVQLVQSGAEVKKPGASVKVSCKASGYTFTTYWMHWVRQAPGQGLEWMGVIDPSDSDTTYNQKFKGRVTMTRDTSTSTVYMELSSLRSEDTAVYYCTRSLDGYYDYWGQGTLVTVSSGGGGSGGGGSEVQLVESGGGLVQPGGSLRLSCAASGFTFSTYGMSWVRQAPGKGLVWVATINSNGGSTSYPDSVKGRFTISRDNAKNTLYLQMNSLRAEDTAVYYCARFFRFRNAMDYWGQGTLVTVSSASTKGPSVFPLAPSSKSTSGGTAALGCLVKDYFPEPVTVSWNSGALTSGVHTFPAVLQSSGLYSLSSVVTVPSSSLGTQTYICNVNHKPSNTKVDKKVEPKSCDKTHTCPPCPAPEAQGGPSVFLFPPKPKDTLYITREPEVTCVVVDVSHEDPEVKFNWYVDGVEVHNAKTKPREEQYNSTYRVVSVLTVLHQDWLNGKEYKCQVSNKALPAPIEKTISKAKGQPREPQVYTLPPSRDELTKNQVSLTCLVKGFYPSDIAVEWESNGQPENNYKTTPPVLDSDGSFFLYSKLTVDKSRWQQGNVFSCSVMHEALHNHYTQKSLSLSPG
light: DIQMTQSPSSLSASVGDRVTITCRTSENIYSYLAWYQQKPGKAPKFLVYNAKTLAEGVPSRFSGSGSGTDFTLTISSLQPEDFATYYCQHYYGPPTWTFGQGTKVEIKRTVAAPSVFIFPPSDEQLKSGTASVVCLLNNFYPREAKVQWKVDNALQSGNSQESVTEQDSKDSTYSLSSTLTLSKADYEKHKVYACEVTHQGLSSPVTKSFNRGEC
notes: huC2C1A1A1-V15 IgG with an anti-TSLP scFv (VL-VH) at the N-terminus of the heavy chain; AQQ and YTE already stand in the entry
With B3, the 50% effective concentration (EC50) in assay [1] was 0.107 nM; in assay [4] it was 0.0323 nM. For the same molecule, the Kd was 0.00758 nM in assay [2] and 3.15 nM in assay [3]. Also, the koff worked out at 4.43e-06 s⁻¹ in assay [2] and 0.000436 s⁻¹ in assay [3]. Also, the values for the kon in assay [2] and in assay [3] were 585000 M⁻¹ s⁻¹ and 138000 M⁻¹ s⁻¹, respectively.
